From the supplement of paper PMC7125110 come the findings set out here.

± gives the standard error. Variants at the floor of the assay were thinned out. A value given as a limit tells only on which side of the number the result lay.

The labels stand for the following.
B1: glmS ribozyme (parent)
chain: AUAAAAGCGCCAGAACUACAGAAAUGUAGUUGACGAGGAGGAGGUUUAUCGAAUUUUCGGCGGAUGCCUCCAAA

Holding throughout (settings): with glucosamine-6-phosphate
In data set [1] the parent is B1. The data set is described as follows: self-cleavage kobs at 40 uM GlcN6P; higher = faster cleavage; RNA array. The gist of the method:
(§1)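 E. coli RNA polymerase transcribed barcoded ribozyme variants in situ on sequenced MiSeq chips, which were tracked via a hybridised Cy3 probe at 37 °C. Tiles were imaged over ~14 h after glucosamine-6-phosphate (40 μM to 10 mM) in HEPES/KCl/Mg(OAc)2 buffer was flowed in. Normalised per-tile medians were fit to one- or two-exponential decays for kobs, and kcat and KM came from weighted Michaelis–Menten fits.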

Variants of B1 are the subject of data set [2]. Put plainly: self-cleavage kobs at 160 uM GlcN6P; higher = faster cleavage; RNA array. In short, it runs like this:
as §1

Data set [3] covers variants of B1. Put plainly: self-cleavage kobs at 640 uM GlcN6P; higher = faster cleavage; RNA array. The gist of the method:
as §1

In data set [4] the parent is B1. The data set is described as follows: self-cleavage kobs at 10000 uM GlcN6P; higher = faster cleavage; RNA array. The gist of the method:
as §1

Data set [5] covers variants of B1. Put plainly: self-cleavage kobs at 2500 uM GlcN6P; higher = faster cleavage; RNA array. The gist of the method:
as §1

As for C16G A42G, the “self-cleavage kobs at 40 uM GlcN6P” value in data set [1] turned out to be 0.000233 ± 5.6e-05 s⁻¹. Besides, the “self-cleavage kobs at 160 uM GlcN6P” value in data set [2] was determined as 0.000208 ± 9.6e-05 s⁻¹. Besides, the “self-cleavage kobs at 640 uM GlcN6P” value in data set [3] amounted to 0.000804 ± 0.0003 s⁻¹. In addition, in data set [4], the “self-cleavage kobs at 10000 uM GlcN6P” value stood at 0.00496 ± 0.001 s⁻¹.
Take A33G G37U U46G A52G G62A: in data set [1], the “self-cleavage kobs at 40 uM GlcN6P” value is under 1e-05 s⁻¹.
Regarding U57G G62C A64U, the “self-cleavage kobs at 160 uM GlcN6P” value in data set [2] was under 1e-05 s⁻¹. Moreover, the “self-cleavage kobs at 2500 uM GlcN6P” value in data set [5] is under 1e-05 s⁻¹. Moreover, the “self-cleavage kobs at 10000 uM GlcN6P” value in data set [4] is under 1e-05 s⁻¹.
Consider U56G U65A, for which, in data set [1], the “self-cleavage kobs at 40 uM GlcN6P” value was 3.91e-05 ± 7.3e-06 s⁻¹. The “self-cleavage kobs at 640 uM GlcN6P” value in data set [3] was found to be 0.000245 ± 6.8e-05 s⁻¹. The “self-cleavage kobs at 2500 uM GlcN6P” value in data set [5] is 0.000827 ± 0.0002 s⁻¹. Moreover, the “self-cleavage kobs at 10000 uM GlcN6P” value in data set [4] worked out at 0.0026 ± 0.0003 s⁻¹.
Consider U55A C71U, for which the “self-cleavage kobs at 40 uM GlcN6P” value in data set [1] amounted to 0.00109 ± 0.00019 s⁻¹. Besides, in data set [2], the “self-cleavage kobs at 160 uM GlcN6P” value was 0.00212 ± 0.00076 s⁻¹. Besides, the “self-cleavage kobs at 640 uM GlcN6P” value in data set [3] amounted to 0.0121 ± 0.0034 s⁻¹. For the same variant, the “self-cleavage kobs at 2500 uM GlcN6P” value in data set [5] stood at 0.00755 ± 0.0025 s⁻¹. Also, the “self-cleavage kobs at 10000 uM GlcN6P” value in data set [4] is 0.0549 ± 0.013 s⁻¹.
In the case of G9A A42G G43U C61A, the “self-cleavage kobs at 40 uM GlcN6P” value in data set [1] is under 1e-05 s⁻¹. For the same variant, in data set [3], the “self-cleavage kobs at 640 uM GlcN6P” value was under 1e-05 s⁻¹.
C11U U55G C71A: the “self-cleavage kobs at 160 uM GlcN6P” value in data set [2] came out at 3.73e-05 ± 1.5e-05 s⁻¹. Besides, the “self-cleavage kobs at 640 uM GlcN6P” value in data set [3] was 8.41e-05 ± 1.7e-05 s⁻¹. Besides, in data set [5], the “self-cleavage kobs at 2500 uM GlcN6P” value is 0.000143 ± 5.3e-05 s⁻¹.
As to C8A A48C C68G, the “self-cleavage kobs at 160 uM GlcN6P” value in data set [2] is under 1e-05 s⁻¹. Moreover, in data set [3], the “self-cleavage kobs at 640 uM GlcN6P” value was under 1e-05 s⁻¹.
U30G U31G C50A A52U G62U: in data set [2], the “self-cleavage kobs at 160 uM GlcN6P” value is under 1e-05 s⁻¹.
Take A33C G59C C61G A64G: in data set [2], the “self-cleavage kobs at 160 uM GlcN6P” value was under 1e-05 s⁻¹. Also, the “self-cleavage kobs at 640 uM GlcN6P” value in data set [3] is under 1e-05 s⁻¹.
In the case of G35A G62U, in data set [2], the “self-cleavage kobs at 160 uM GlcN6P” value was under 1e-05 s⁻¹. For the same variant, the “self-cleavage kobs at 2500 uM GlcN6P” value in data set [5] was under 1e-05 s⁻¹. In addition, the “self-cleavage kobs at 10000 uM GlcN6P” value in data set [4] is under 1e-05 s⁻¹.
As to G9U C11U C68U, the “self-cleavage kobs at 40 uM GlcN6P” value in data set [1] was under 1e-05 s⁻¹.
For C10A G40U G41A C70A, the “self-cleavage kobs at 40 uM GlcN6P” value in data set [1] was under 1e-05 s⁻¹. Moreover, the “self-cleavage kobs at 10000 uM GlcN6P” value in data set [4] is under 1e-05 s⁻¹.
With G7U U45C, the “self-cleavage kobs at 40 uM GlcN6P” value in data set [1] was under 1e-05 s⁻¹. In addition, in data set [2], the “self-cleavage kobs at 160 uM GlcN6P” value is under 1e-05 s⁻¹. Further, the “self-cleavage kobs at 640 uM GlcN6P” value in data set [3] is under 1e-05 s⁻¹. Besides, the “self-cleavage kobs at 2500 uM GlcN6P” value in data set [5] was under 1e-05 s⁻¹. In data set [4], the “self-cleavage kobs at 10000 uM GlcN6P” value is under 1e-05 s⁻¹.
Consider G9A C34G, for which, in data set [1], the “self-cleavage kobs at 40 uM GlcN6P” value is under 1e-05 s⁻¹. The “self-cleavage kobs at 160 uM GlcN6P” value in data set [2] is under 1e-05 s⁻¹. Besides, the “self-cleavage kobs at 2500 uM GlcN6P” value in data set [5] was under 1e-05 s⁻¹. Further, in data set [4], the “self-cleavage kobs at 10000 uM GlcN6P” value was under 1e-05 s⁻¹.
On to C11A C68A, for which, in data set [1], the “self-cleavage kobs at 40 uM GlcN6P” value was under 1e-05 s⁻¹.
As for A48U G60U, the “self-cleavage kobs at 40 uM GlcN6P” value in data set [1] is under 1e-05 s⁻¹. For the same variant, the “self-cleavage kobs at 160 uM GlcN6P” value in data set [2] was under 1e-05 s⁻¹. Moreover, in data set [3], the “self-cleavage kobs at 640 uM GlcN6P” value is under 1e-05 s⁻¹. Besides, the “self-cleavage kobs at 2500 uM GlcN6P” value in data set [5] is under 1e-05 s⁻¹. For the same variant, the “self-cleavage kobs at 10000 uM GlcN6P” value in data set [4] is under 1e-05 s⁻¹.
Regarding A23C A52G U69A, the “self-cleavage kobs at 160 uM GlcN6P” value in data set [2] is 6.42e-05 ± 2.4e-05 s⁻¹. In addition, the “self-cleavage kobs at 640 uM GlcN6P” value in data set [3] was 9.59e-05 ± 2.5e-05 s⁻¹.
Regarding G51U G62U A64C, the “self-cleavage kobs at 160 uM GlcN6P” value in data set [2] is under 1e-05 s⁻¹.
As for G7U G59A, the “self-cleavage kobs at 160 uM GlcN6P” value in data set [2] is under 1e-05 s⁻¹. For the same variant, in data set [3], the “self-cleavage kobs at 640 uM GlcN6P” value is under 1e-05 s⁻¹. Besides, the “self-cleavage kobs at 2500 uM GlcN6P” value in data set [5] was under 1e-05 s⁻¹. The “self-cleavage kobs at 10000 uM GlcN6P” value in data set [4] was under 1e-05 s⁻¹.
C8A U31G G62A: in data set [2], the “self-cleavage kobs at 160 uM GlcN6P” value was under 1e-05 s⁻¹. The “self-cleavage kobs at 2500 uM GlcN6P” value in data set [5] was under 1e-05 s⁻¹.
Regarding U47C G62C, the “self-cleavage kobs at 160 uM GlcN6P” value in data set [2] was under 1e-05 s⁻¹. The “self-cleavage kobs at 640 uM GlcN6P” value in data set [3] was under 1e-05 s⁻¹. Moreover, the “self-cleavage kobs at 2500 uM GlcN6P” value in data set [5] was under 1e-05 s⁻¹. Besides, the “self-cleavage kobs at 10000 uM GlcN6P” value in data set [4] was under 1e-05 s⁻¹.
